Reference: publication PMC5377818 (The Journal of Biological Chemistry, 2017)

B1: Influenza A/WSN/33 virus M2 protein made in infected cells (natural protein)
chain: MSLLTEVETPIRNEWGCRCNDSSDPLVIAANIIGILHLILWILDRLFFKCIYRRFKYGLKRGPSTEGVPESMREEYRKEQQNAVDVDDGHFVNIELE

What was measured:
[1] = biological target: FLAG-tagged influenza A virus M2 protein (influenza A virus (strain not stated)) (UniProt P05780); assay: co-IP
[2] = biological target: c-Myc-tagged cyclin D1 (UniProt P24385 1-295); assay: co-IP; conditions: partners not purified
Sequence of c-Myc-tagged cyclin D1 (P24385 whole entry): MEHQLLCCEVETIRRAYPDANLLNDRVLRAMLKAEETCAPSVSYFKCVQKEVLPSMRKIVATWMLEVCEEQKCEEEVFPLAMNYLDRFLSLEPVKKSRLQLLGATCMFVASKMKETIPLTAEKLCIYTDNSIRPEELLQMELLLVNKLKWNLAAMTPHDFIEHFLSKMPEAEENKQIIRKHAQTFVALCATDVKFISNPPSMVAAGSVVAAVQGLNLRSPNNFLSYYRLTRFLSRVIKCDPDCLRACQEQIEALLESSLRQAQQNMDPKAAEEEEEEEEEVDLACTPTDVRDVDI

Row | Molecule | percent reduction of M1 co-precipitated with M2 [1] [%] | M2 co-precipitated, relative to cyclin D3 [2] [%]
1 | FLAG- and c-Myc-tagged human cyclin D3 (from UniProt P30281-1 1-292) (natural protein) | 70 | –
2 | B1 | – | ~50
